Laboratory results: paper PMC11779849

Tests used:
[1] = biological target: human P-cadherin K14E mutant ectodomain (EC1-5) (human); assay: single-molecule AFM force spectroscopy; biotinylated Pcad EC1-5 held by streptavidin on PEG tethers on both the cantilever and the glass substrate; no CQY684 (-CQY); tip retracted at 1 µm/s; Tris buffer pH 7.5, 10 mM Tris-HCl, 100 mM NaCl, 10 mM KCl, 2.5 mM CaCl2; peak forces from Gaussian fits of unbinding force histograms
[2] = biological target: human P-cadherin K14E mutant ectodomain (EC1-5) (human); assay: single-molecule AFM force spectroscopy; as the -CQY experiment but with 40 nM CQY684 Fab in the buffer (+CQY); Pcad EC1-5 on cantilever and substrate; 1 µm/s; Tris buffer pH 7.5 with 2.5 mM CaCl2
[3] = biological target: human P-cadherin W2A mutant ectodomain (EC1-5) (human); assay: single-molecule AFM force spectroscopy; biotinylated Pcad EC1-5 held by streptavidin on PEG tethers on both the cantilever and the glass substrate; no CQY684 (-CQY); tip retracted at 1 µm/s; Tris buffer pH 7.5, 10 mM Tris-HCl, 100 mM NaCl, 10 mM KCl, 2.5 mM CaCl2; peak forces from Gaussian fits of unbinding force histograms
[4] = biological target: human P-cadherin W2A mutant ectodomain (EC1-5) (human); assay: single-molecule AFM force spectroscopy; as the -CQY experiment but with 40 nM CQY684 Fab in the buffer (+CQY); Pcad EC1-5 on cantilever and substrate; 1 µm/s; Tris buffer pH 7.5 with 2.5 mM CaCl2

Substance | peak unbinding force [1] [pN] | peak unbinding force (with 40 nM CQY684) [2] [pN] | peak unbinding force [3] [pN] | peak unbinding force, first Gaussian (with 40 nM CQY684) [4] [pN] | peak unbinding force, second Gaussian (with 40 nM CQY684) [4] [pN]
human P-cadherin K14E mutant ectodomain (EC1-5) (domain or fragment) | 33.1 | 31 | – | – | –
human P-cadherin W2A mutant ectodomain (EC1-5) (domain or fragment) | – | – | 24.5 | 35.1 | 55.8
